# Experimental data reported in the supplement of paper PMC5998384.
# Columns and labels:
# [1] = tested on: HeLa Kyoto; assay: solubility change mitosis vs G1/S (difference of NP-40 vs SDS log2 ratios) (log2 ratio difference); higher = more soluble in mitosis
# [2] = tested on: HeLa Kyoto; assay: solubility in G1/S (NP-40 vs SDS abundance) (log2 ratio); higher = more soluble; conditions: cell cycle stage: G1/S
# [3] = tested on: HeLa Kyoto; assay: melting temperature (median over replicates), in situ; higher = more thermally stable
# [4] = tested on: HeLa Kyoto; assay: thermal stability score vs G1/S (z-score of summed log2 fold changes over temperatures); higher = more thermally stable than in G1/S
# [5] = cell cycle stage: early G1 (4.5 h after nocodazole release)
# 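For melting temperature (median over replicates), in situ in this document: HeLa Kyoto cells synchronized by double thymidine or nocodazole block, proteins quantified by TMT10plex mass spectrometry, three independent biological replicates.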
# 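For solubility change mitosis vs G1/S (difference of NP-40 vs SDS log2 ratios) in this document: synchronized HeLa Kyoto cells (double thymidine block for G1/S, nocodazole release for mitosis), protein amounts in NP-40 versus SDS lysates quantified by mass spectrometry, three biological replicates.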
# 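For solubility in G1/S (NP-40 vs SDS abundance) in this document: HeLa Kyoto cells arrested at G1/S by double thymidine block, proteins quantified by TMT10plex mass spectrometry in mild NP-40 versus SDS extracts, three biological replicates.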
# 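For thermal stability score vs G1/S (z-score of summed log2 fold changes over temperatures) in this document: synchronized HeLa Kyoto cells, proteins quantified by TMT10plex mass spectrometry, three biological replicates, mitosis taken 0.5 h after nocodazole release, G1/S directly after double thymidine block.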
Substance,solubility change mitosis (log2) [1],solubility in G1/S (log2) [2],melting temperature ([3]; cell cycle stage: G1/S) [°C],melting temperature ([3]; cell cycle stage: mitosis) [°C],"thermal stability score [4, 5]",thermal stability score ([4]; cell cycle stage: mitosis)
MVPSSPAVEKQVPVEPGPDPELRSWRHLVCYLCFYGFMAQIRPGESFITPYLLGPDKNFTREQVTNEITPVLSYSYLAVLVPVFLLTDYLRYTPVLLLQGLSFVSVWLLLLLGHSVAHMQLMELFYSVTMAARIAYSSYIFSLVRPARYQRVAGYSRAAVLLGVFTSSVLGQLLVTVGRVSFSTLNYISLAFLTFSVVLALFLKRPKRSLFFNRDDRGRCETSASELERMNPGPGGKLGHALRVACGDSVLARMLRELGDSLRRPQLRLWSLWWVFNSAGYYLVVYYVHILWNEVDPTTNSARVYNGAADAASTLLGAITSFAAGFVKIRWARWSKLLIAGVTATQAGLVFLLAHTRHPSSIWLCYAAFVLFRGSYQFLVPIATFQIASSLSKELCALVFGVNTFFATIVKTIITFIVSDVRGLGLPVRKQFQLYSVYFLILSIIYFLGAMLDGLRHCQRGHHPRQPPAQGLRSAAEEKAAQALSVQDKGLGGLQPAQSPPLSPEDSLGAVGPASLEQRQSDPYLAQAPAPQAAEFLSPVTTPSPCTLCSAQASGPEAADETCPQLAVHPPGVSKLGLQCLPSDGVQNVNQ [SLC19A1],-0.0504,0.075,57,54.9,-3.67,-3.7
FASN,-0.203,-0.0375,52.1,51.8,-0.721,0.266
MAAAVGRLLRASVARHVSAIPWGISATAALRPAACGRTSLTNLLCSGSSQAKLFSTSSSCHAPAVTQHAPYFKGTAVVNGEFKDLSLDDFKGKYLVLFFYPLDFTFVCPTEIVAFSDKANEFHDVNCEVVAVSVDSHFSHLAWINTPRKNGGLGHMNIALLSDLTKQISRDYGVLLEGSGLALRGLFIIDPNGVIKHLSVNDLPVGRSVEETLRLVKAFQYVETHGEVCPANWTPDSPTIKPSPAASKEYFQKVNQ [PRDX3],-0.00401,0.452,58.2,57.9,0.801,-1.38
MAMNYNAKDEVDGGPPCAPGGTAKTRRPDNTAFKQQRLPAWQPILTAGTVLPIFFIIGLIFIPIGIGIFVTSNNIREIEIDYTGTEPSSPCNKCLSPDVTPCFCTINFTLEKSFEGNVFMYYGLSNFYQNHRRYVKSRDDSQLNGDSSALLNPSKECEPYRRNEDKPIAPCGAIANSMFNDTLELFLIGNDSYPIPIALKKKGIAWWTDKNVKFRNPPGGDNLEERFKGTTKPVNWLKPVYMLDSDPDNNGFINEDFIVWMRTAALPTFRKLYRLIERKSDLHPTLPAGRYSLNVTYNYPVHYFDGRKRMILSTISWMGGKNPFLGIAYIAVGSISFLLGVVLLVINHKYRNSSNTADITI [TMEM30A],-0.17,0.428,54.2,54.6,-0.78,0.594
MSLTSSSSVRVEWIAAVTIAAGTAAIGYLAYKRFYVKDHRNKAMINLHIQKDNPKIVHAFDMEDLGDKAVYCRCWRSKKFPFCDGAHTKHNEETGDNVGPLIIKKKET [CISD1],0.0262,0.633,57.1,55.3,-0.277,-1.59
MAAARHSTLDFMLGAKADGETILKGLQSIFQEQGMAESVHTWQDHGYLATYTNKNGSFANLRIYPHGLVLLDLQSYDGDAQGKEEIDSILNKVEERMKELSQDSTGRVKRLPPIVRGGAIDRYWPTADGRLVEYDIDEVVYDEDSPYQNIKILHSKQFGNILILSGDVNLAESDLAYTRAIMGSGKEDYTGKDVLILGGGDGGILCEIVKLKPKMVTMVEIDQMVIDGCKKYMRKTCGDVLDNLKGDCYQVLIEDCIPVLKRYAKEGREFDYVINDLTAVPISTSPEEDSTWEFLRLILDLSMKVLKQDGKYFTQGNCVNLTEALSLYEEQLGRLYCPVEFSKEIVCVPSYLELWVFYTVWKKAKP [SMS],-0.166,0.398,56.6,56.5,-2.98,-1.47
MAEERPGAWFGFGFCGFGQELGSGRGRQVHSPSPLRAGVDICRVSASWSYTAFVTRGGRLELSGSASGAAGRCKDAWASEGLLAVLRAGPGPEALLQVWAAESALRGEPLWAQNVVPEAEGEDDPAGEAQAGRLPLLPCARAYVSPRAPFYRPLAPELRARQLELGAEHALLLDAAGQVFSWGGGRHGQLGHGTLEAELEPRLLEALQGLVMAEVAAGGWHSVCVSETGDIYIWGWNESGQLALPTRNLAEDGETVAREATELNEDGSQVKRTGGAEDGAPAPFIAVQPFPALLDLPMGSDAVKASCGSRHTAVVTRTGELYTWGWGKYGQLGHEDTTSLDRPRRVEYFVDKQLQVKAVTCGPWNTYVYAVEKGKS [RCCD1],-0.0463,0.0194,51.8,54,-0.546,-1.48
